Here are results for 19 sequences from a protein production outcome set (Wang et al. 2014).

The nature of this data set: label from the status in PepcDB records.

Turning to “MREPMTWRTSPGQTADASRHPAIPSRSPLASRALSFLGALSLLTFAATPVLAESTPTAAPPQFAVESPKAASSLLLSVAHAGKRLVAVGDRGHILLSDDDGKTWTQAKVPTRQLLTSVFFVNERKGWAVGHDAQILVSDDAGSTWARQFEDLGREAPLLDIWFADEQHGLAVGAYGALLETRDGGQHWEDVSERLDNEDQFHLNAIAAVKDNGLLVVGEAGSLFRSKDWGATWEKLEGPYEGSLFGAIGTADAGGVLVYGLRGHLFRSADFGDSWEEIPLKAASGDLEFGLSDGALLADGRIVVVGHGGSVLESTDGGRSFSVFNRPDRLSLAGVSATGDGHLILVGQGGVHLAAANGAALEQQQ”, the protein production result is reported as “failed”.

With “MRERRYSSTSPERLAAALFDVAAESGLEGASVREVAKRAGVSIGAVQHHFSTKDEMFAFALRTLVDKLLARLSEVERGGDPARALFAAMSQLLPLDEARSREAHVMAAFAVRAATSPSLAEIRRKTLFTIRTGLSAVLIGIGTPEAETRAALLLATVDGLALDAIGSPALYPPEYLEHALDIQIGMILQGADVVPSSSIELAS”, the protein production entry is on record as “not failed”.

“MRETFEIGEIVTGIYKTGKYIGEVTNSRPGSYVVKVLAVLKHPVQGDLHNVKQANVPFFHERRALAFREQTNIPEQMVKKYEGEIPDYTESLKLALETQMNSFSEDDSPFAERSLETLQQLKKDYKL”: the protein production entry is recorded as “not failed”.

Turning to “MRETLERLLASETFGRSERARKLIRYLVEREQAGEADRLKGFSIAMDVFGKDGDFDPSTDAVVRVQAGRLRELLQQYFANEGIAEPVRIAIPRGGYVPAYELNAIRLPEVAKPAEQAAAAAAPAEHPSAAEDAVAPDASLAPAAAPVPSVARHLRFFWMAIAVVIAMLGVLILRQGSGALLAGGHLPATFESAGLTSSIAPSPVSEALPLVYIAVKASGADAGRIAASLRAGLSGFDTIDFIGRDTVDKTDPVNNPTSFIFDILPGPNTGDITIELQSMASGRVLLSRNLTPADSTPTAIEDRVADMLSSALPASGTIYNYIEQTGTPNGLTECLLLNDKYYLDQNARTHEAAYRCLETLANSGAKSSLVYSELASLQVEAVSDHYVYPPNATIEKAVEFAHRGVQMGPTSPYAHRAYGYVSSRLGNTDEAIRWMRKAYELNPYDLGMAAAYGYGLIFAGRYAEGTPILTHAAETFSGHSTWWDYGLFVGDFMLGDMNKAIAASMALRTTATKSHYLAARLIGAKAAGQDSLVTTLLNELNTKFPKFAADPRSTFVERKYPADLTDRLVQALRAAGLGSAS”, the protein production result is given as “failed”.

As to “MRFAVLGSGSQGNGTLIASGDTFILVDCGFSLRETERRLALLGVSAAQLSAVLVTHEHADHVHGVGLLSRRYNVPVYLSQGTLRGMRKPVEVAGFLACGQSLHIGSLEVTAARVEHDAYEPLQYVVSDGKRRFGMLTDLGSYDALLLERYQGLDALLIEANHCRDLLARGHYPAFLKQRVGGMQGHLNNHQAARLVHELGWNNLQHLVLAHLSSKNNLPHLARQCFVDTLGCDPDWLQVANQEHGLDWREIALEHHHHHH”, the protein production entry is “not failed”.

On to “MRFCIMKKAVVLLSGGLDSTTCLALAKSQGFACYALSFSYGQRHSAELCAATRIAKHMGAADHKIVTLDIALFGGSALTDASIEVPEFKESPEIPVTYVPARNTIFLAMALGYAESIGARDIFIGASSVDYSHYPDCRPEFIESFQSLANLATKAGIEGDRFTINAPLQYLSKVQTIQLGTELGVDYGLTVSCYQANEAGEACGQCDSCTFRKRGFKSAGVDDPTRYQKCVHI”, for which the protein production entry is “failed”.

With “MRFDGAAGLAQRMPMLGRVVQAAPLALLLGCCLILTLPASGRTLFYILCSLSLLFLPLAMFQRLEAKPKALNLLLSFALLIFIGFRAAWLWYFPAPTDAGLFPVAFAYQLSNKIWLSALPLLLFPLWSPFRERLSPAGATLALVSASALLSMITLKAWYDAHGVRVGLGSLYATGAAYLLSAIHFFALLLFHPFRLKKWQWLGLCLLIALQFMSIVATGTRAALLVYLFVLGCALLWRFGLHQSWRTYAIAALLSVATLWLSWAAVGSRVKQAQADLIAYSQGNADTSLGIRFSLWDAGVHAVREQPWGQSIQARDVLFHQLVKDGALNKAALIMRDVHLHNEWLEILSLQGLPGALSWLIFLLGFGVYGWKRGGFFRRFALFYIGFWLVFGLSDVLLLSPQIAMFGAMFAALGLYLAPIFDARDERRL”, the protein production result is listed as “failed”.

With “MRFKAELMNAPEMRRALYRIAHEIVEANKGTEGLALVGIHTRGIPLAHRIARFIAEFEGKEVPVGVLDITLYRDDLTEIGYRPQVRETRIPFDLTGKAIVLVDDVLYTGRTARAALDALIDLGRPRRIYLAVLVDRGHRELPIRADFVGKNVPTSRSEVVKVKVEEVDGEDRVELWEREGA”, the protein production entry was “not failed”.

For “MRFKAIFVRVTKELLRDKRTLALMLVAPVLVLTLMYFIFDTNNDVNLEVGVDESVPNKIVNALPSDKVKIKEYDSPSSIKKTIVNSDLDAYIEKKGDKLDVTYKNENPSNTGTTKQLLGSAIQKNKLQDMAKVINKIPSNIKQGNSAQGEQITLDNHYLYGNSDSTFFDKMFPILIGFFVFFFVFLISGIALLRERTKGTLERLLATSVKRSEIVFGYLAGYGMFAVLQTLIIVFYAIYLLKIDVAGSIWWVLLINILIALSALAMGIFVSTFANSEFQMVQFIPLVVIPQVFFSGIIPLDNVADWVSSIGYIFPLRYAGDALTNIMIKGEGFNNIWFDLSILLVFIIGFTVLNIIGLKRYRKV”, the protein production result was “not failed”.

As to “MRFKFLRGKLNHPIKCVCDNLSMDNQIMSTELYSQILEVIALVPFGKVATYGQIARLAGLPKHARLVGYTLKNIDQASDIPWHRIINAQGKVSTYHLNQIGENIQLNKLRDEGIVVLNGKINLKKYQWLVSQS”, the protein production entry is “failed”.

For “MRFLLMRSLLVHPCGGSIINVRSTTTSAQYVASRSRDPVFEKLMDKYKNLLKVIAIQDLTLANPTADPPSLSIEFLSRLSQKLHLNRGAASFLRKYPHIFHVLYDPVKAEPFCRLTDVAMEISRQEALAITATLSLVVDRLVRLLSMSISKSIPLRAVFKVWRELGLPDDFEDSVISKNPHLFKLSDGHESNTHILELVQEEEKRLEFEAAVEKWRVVECSKEDCSVDRTEIQFSFKHSYPPGMRLSKTFKAKVKEWQRLPYVGPYEDMVGKKKSRSGVMGIEKRAVAIAHEFLNLTVEKMVEVEKISHFRKCFGIDLNIRDLFLDHPGMFYVSTKGKRHTVFLREAYERGRLIDPNPVYDARRKLLDLVLLGRHAALSESGNTSMSEQE”, the protein production result is recorded as “failed”.

Take “MRFVLRILKALALLLVLLVITAAGWLFIRPPELLRVGDGYAAKIVCSNVFIAGREAEDVLHDDVQAPGNPLLRLLRVSVDRDNDRVTARFMGLFAPSYALYRGAFGCTSVPDGNFEAAAKAAPFDPPAKMQANDALWPEGEGTGNPADGKIAALLSDAGVAGPAMRAIVVVRNGRIVTEAYGPGFSAKTPLIGWSMTKTVNATILGRLMLGGKISFDDDNLLAQWKNDARAKIKVSDLLGMESGLAFNENYGDVADVTRMLYLDPDMVSLPAGAPMEAAPGQRFRYSSGTAVLLSRIWMDRVGNAQAAFSYPHDALFAPLGMTSAVFELDARGTFAGSSYLYATAHDWARFGQFLLQDGVWNGQRLLPEGFVGAMRTPTAASNGRYSQGQAWLSPGRGSSAGAGLPEDTFWLTGHDGQSVAIVPSANLVVVRLGLTPSRLGYQPQTLLKAILAALPQSGAQQQAGSQRQAQPQP”: the protein production result was “failed”.

Take “MRFWGKFFGFVIGFMFGRFFGALLGLWLGHLYDKRPGGGASFSQILGQAKNRQGIFFNTTFAVMGHVAKASGRVTETDIRIATLLMDQMRLTGDARKEAQQAFREGKEPDFDLCSSLQAFRAVTQGRQELVQMFIEIQIQTALSDGELDAAEHAILMTVAQELGYGRQQLDELLKRWQAEFRFHQTSSGNKTSITDAYHLLGITAEATDQEVKRAYRKLMNEHHPDKLVAKGLPPEMMEIANRKAQDIQAAYDRVKSERGMR”: the protein production result is recorded as “failed”.

As to “MRGADGRVTDADYRELRGATETPREAVVVGLAGEVGLTSAEIPRVRPCDVAPHDHDGVTHYFLAVPGADGGSDRDAYLPPAVERDIRRRADAAGLADDDPLVDVSARRVQTLVNAVAGRTDTAGLDGVAAQDLRSFFARRLLTGAGVDPRVVAAVGGWSRLASLDQYAAVDAVDRDAIARAFDGTTRAPTDRSEQRAHDRVDEAHSAVLAAGDALSDASTRGAVETAVCEALAASDAYEMAWLARPTTRDDVTVAATAGGDRAIRDDASAAPGATLVQAALDDGTGLFTPAASAAPAVAALREHAAAAGVQAMGVVPVAGPEAAHGVLAVGASTARFSQRERTLITDLGRRVGRAVALAEQRHRLLTDTVLEVAFEVRAGSVFARAAVEQGCDLSLEGVVPGDRQTLVFFVRVAGAPADGVRDWLHDHDGVVSVRVVRDQGGEAVLAVGVAPGADLAMAVVSHGGTIRDLSAGPGGERVVAGVAPETDVRALLDALATAFPGVSLAAKRERARGDETGQRDGASLHDALTDKQAAVLRAAFHAGYFEWPRESTAEDLAADMGVTAPTLHNHLRRAQQKLLATVIDSDGGCDPDTPWPDTRQ”, the protein production entry is “failed”.

Regarding “MRGDDMHIYELVSRDRTHPVRIYLLHSEYWTEDEFYNLLLEAFQRSSASDWHLQILEVSKYLVTAHGFVEAGGLQEIGFPGELSKTEVRRRINAFLGKDRSD”, the protein production entry is “not failed”.

For the sequence “MRGNDETVLAQALDWLRQGRRVALLTVLGTYGASPRPPGALAAIRDDGVICGSVSGGCVEDDLRREIAEGGVFGAAPSARVRSFGVSVEERQRYRLPCGNSLRVAVETMPDPAQLEALLAAVRQRRCLWRRVDYRDGAAHLLESGPPAAFAEDEAGFSALHGPLWRLLIIGGAELGRYLAQIALTLDYAVTVCEPREEYAAGWEPDGVALSAQMPDDLVLAFGCDERTAVVAVTHDPKLDDLALMEALRLPCHYVGALGSATTTMKRKARLAEHFGLTPAQLDRLHGPVGLPIGSRTPAEIAVSIAADLIASRSACHREGVHGEEGSCRA”, the protein production result is “failed”.

In the case of “MRHDIRAPETFRRYCLPSRPRGCPLKTYVIGDVHGRADLLKALPSHIEENDPNGCGYRVIFLGDIIDRGPDSMKAMEMVVRELNQNPESRLILGNHEEFMLLFLDRPDKREIVFDHWMRNGGLAAAASYGLNVGGRYGRIEEAHESLLELLHRRQNHIDAMRRAASLINDGANVFVHAGLRPGVPFEQQTTKDLRTIRSGFLDNDFDFGAMVVHGHTVTSSGLPEIRRSRIALDTGAGAGGCLSMMMVDDDGARTFFQSGSAREVVKVELSQRPDEP”, the protein production entry was “failed”.

Consider “MRHLPYPLLGLFLALSSTGAALAGEQYYPLDKGSAPYAVAPSAQGAVWYGADGGHSLGRLDPTSGESVQVPLGEGARPRAIVSDESGNAWVLDSGLNAILRIGGERLGSERFPLPAKAAPAGLESAVFDDDGRLWFTGSRGFHGRLDPARRLVEVWPSPQGKAANGICVTPDGEVWYAQDDALVHVDPLDGSAERLPAPEGTKALRGIGADSIGRLWASDSGGARLYRYDPSDASWQSWPLPDSQARPDSLRVDAMDRVWLHDAASGALLRFDSEQATFRVLPSDRPAPGNALLGGRPGETWSAEPAADRLRVVRD”, for which the protein production result is on record as “failed”.

For “MRHYETMFILKPTLVEEEIKSKIEFYKEVITKHHGVIETSLDMGMRNLAYEIKKHKRGYYYVAYFKAEPSMIVELERLYRINEDVLRFIVIKYESKKEVEAWHALVDRANKKPSHAKEKHEKTEHTHSHHTEEAESVGSHSE”, the protein production result is given as “failed”.
